Laboratory results from patent publication US20170355730.

T1: R9-PCP
T1 chain: RRRRRRRRRXDEXLI

T2: cFΦR4-PCP (not fully specified)
T2 chain: FXRRRRQXDEXLI

T3: Antp-PCP
T3 chain: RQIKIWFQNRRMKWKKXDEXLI


Columns and labels:
R9-PCP = target: T1, R9-PCP
cFΦR4-PCP = target: T2, cFΦR4-PCP
Antp-PCP = target: T3, Antp-PCP

Protein	kcat/KM (R9-PCP)	kcat/KM (cFΦR4-PCP)	kcat/KM (Antp-PCP)
SHP2 (protein) AEIESRVRELSKLAETTDKVKQGFWEEFETLQQQECKLLYSRKEGQRQENKNKNRYKNILPFDHTRVVLHDGDPNEPVSDYINANIIMPEFETKCNNSKPKKSYIATQGCLQNTVNDFWRMVFQENSRVIVMTTKEVERGKSKCVKYWPDEYALKEYGVMRVRNVKESAAHDYTLRELKLSKVGQGNTERTVWQYHFRTWPDHGVPSDPGGVLDFLEEVHHKQESIMDAGPVVVHCSAGIGRTGTFIVIDILIDIIREKGVDCDIDVPKTIQMVRSQRSGMVQTEAQYRFIYMAVQHYIETLQRR	248 M⁻¹ s⁻¹	7400 M⁻¹ s⁻¹	2210 M⁻¹ s⁻¹
CD45 (protein) YKIYDLHKKRSCNLDEQQELVERDDEKQLMNVEPIHADILLETYKRKIADEGRLFLAEFQSIPRVFSKFPIKEARKPFNQNKNRYVDILPYDYNRVELSEINGDAGSNYINASYIDGFKEPRKYIAAQGPRDETVDDFWRMIWEQKATVIVMVTRCEEGNRNKCAEYWPSMEEGTRAFGDVVVKINQHKRCPDYIIQKLNIVNKKEKATGREVTHIQFTSWPDHGVPEDPHLLLKLRRRVNAFSNFFSGPIVVHCSAGVGRTGTYIGIDAMLEGLEAENKVDVYGYVVKLRRQRCLMVQVEAQYILIHQALVEYNQFGETEVNLSELHPYLHNMKKRDPPSEPSPLEAEFQRLPSYRSWRTQHIGNQEENKSKNRNSNVIPYDYNRVPLKHELEMSKESEHDSDESSDDDSDSEEPSKYINASFIMSYWKPEVMIAAQGPLKETIGDFWQMIFQRKVKVIVMLTELKHGDQEICAQYWGEGKQTYGDIEVDLKDTDKSSTYTLRVFELRHSKRKDSRTVYQYQYTNWSVEQLPAEPKELISMIQVVKQKLPQKNSSEGNKHHKSTPLLIHCRDGSQQTGIFCALLNLLESAETEEVVDIFQVVKALRKARPGMVSTFEQYQFLYDVIASTYPAQNGQVKKNNHQEDKIEFDNEVDKVKQDANCVNPLGAPEKLPEAKEQAEGSEPTSGTEGPEHSVNGPASPALNQGS	2940 M⁻¹ s⁻¹	35100 M⁻¹ s⁻¹	22300 M⁻¹ s⁻¹
VHR (protein) MSGSFELSVQDLNDLLSDGSGCYSLPSQPCNEVTPRIYVGNASVAQDIPKLQKLGITHVLNAAEGRSFMHVNTNANFYKDSGITYLGIKANDTQEFNLSAYFERAADFIDQALAQKNGRVLVHCREGYSRSPTLVIAYLMMRQKMDVKSALSIVRQNREIGPNDGFLAQLCQLNDRLAKEGKLKP	6240 M⁻¹ s⁻¹	2460 M⁻¹ s⁻¹	2030 M⁻¹ s⁻¹
PTP1B (construct not stated) (protein) MEMEKEFEQIDKSGSWAAIYQDIRHEASDFPCRVAKLPKNKNRNRYRDVSPFDHSRIKLHQEDNDYINASLIKMEEAQRSYILTQGPLPNTCGHFWEMVWEQKSRGVVMLNRVMEKGSLKCAQYWPQKEEKEMIFEDTNLKLTLISEDIKSYYTVRQLELENLTTQETREILHFHYTTWPDFGVPESPASFLNFLFKVRESGSLSPEHGPVVVHCSAGIGRSGTFCLADTCLLLMDKRKDPSSVDIKKVLLEMRKFRMGLIQTADQLRFSYLAVIEGAKFIMGDSSVQDQWKELSHEDLEPPPEHIPPPPRPPKRILEPHN	14700 M⁻¹ s⁻¹	37100 M⁻¹ s⁻¹	17400 M⁻¹ s⁻¹
TCPTP (protein) MPTTIEREFEELDTQRRWQPLYLEIRNESHDYPHRVAKFPENRNRNRYRDVSPYDHSRVKLQNAENDYINASLVDIEEAQRSYILTQGPLPNTCCHFWLMVWQQKTKAVVMLNRIVEKESVKCAQYWPTDDQEMLFKETGFSVKLLSEDVKSYYTVHLLQLENINSGETRTISHFHYTTWPDFGVPESPASFLNFLFKVRESGSLNPDHGPAVIHCSAGIGRSGTFSLVDTCLVLMEKGDDINIKQVLLNMRKYRMGLIQTPDQLRFSYMAIIEGAKCIKGDSSIQKRWKELSKEDLSPAFDHSPNKIMTEKYN	457 M⁻¹ s⁻¹	2780 M⁻¹ s⁻¹	970 M⁻¹ s⁻¹
